Assay results: article PMC10580383, “Development of Melanocortin 4 Receptor Agonists by Exploiting Animal-Derived Macrocyclic, Disulfide-Rich Peptide Scaffolds” (ACS Pharmacology & Translational Science, 2023)
Where a SMILES comes first, the peptide text is derived from it. Bridges are numbered along the chain shown (N, C = ends). Where no end group is shown, it is not given here. [ ]: non-standard residue; d: D form.

Key:
[1] = biological target: T1, mouse melanocortin 4 receptor (MC4R) (Mus musculus, UniProt P56450); assay: cAMP second messenger quantification assay (Cisbio HTRF cAMP Gs kit); format: cell-based; settings: for Emax: HEK293, read-out: efficacy cAMP Emax ± SD
T1 construct: expressed in transfected cells; host or cells: HEK293 / HEK293T, transient transfection
T1 sequence (P56450 whole entry): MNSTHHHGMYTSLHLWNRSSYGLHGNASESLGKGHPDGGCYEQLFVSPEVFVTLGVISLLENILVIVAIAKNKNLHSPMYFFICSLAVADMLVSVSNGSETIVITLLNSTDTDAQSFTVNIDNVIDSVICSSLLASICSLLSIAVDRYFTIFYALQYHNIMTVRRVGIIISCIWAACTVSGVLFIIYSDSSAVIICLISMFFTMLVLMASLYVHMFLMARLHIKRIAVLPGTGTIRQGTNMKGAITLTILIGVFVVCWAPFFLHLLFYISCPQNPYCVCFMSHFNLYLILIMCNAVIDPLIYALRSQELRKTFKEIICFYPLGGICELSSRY
Procedure: Figure 3 Functional cAMP assay of synthesized peptide analogues targeting MC4R. The accumulation of adenylyl cyclase-catalyzed cAMP of (A) tachylplesin-1-like peptides (Ta1LPs, green), (B) protegrin-4-like peptides ([…], pink), (C) arenicin-3-like peptides (Ar3LPs, orange), and (D) gomesin-like peptides (GoLPs, blue) was measured in HEK293 cells transiently expressing mouse melanocortin 4 receptor (MC4R). […] Data are from three independent experiments and are shown as mean ± SEM.
Assays were performed on cells transiently expressing mouse MC4R-EGFP. BamHI and SacI restriction sites were used to clone mouse MC4R N-terminally into a pEGFP-N1 vector. Peptide ligands were assayed for […] in a 384-well format and triplicate according to the Cisbio protocol. Briefly, 5 μL containing 10,000 cells per well was incubated with 5 μL of peptide solutions prepared 2× in 1× stimulation buffer. Following an incubation of peptide ligands at 37 °C for 30 min, d2-labeled cAMP and cryptate-labeled antibody (5 μL of each) were added to the mixture and further incubated for at least 1 h at room temperature. Subsequently, cAMP levels were quantified on a Flexstation 3 (Molecular Devices, San Jose, USA) using homogeneous time-resolved fluorescence resonance energy transfer and the ratio 665/620 nm. Samples were measured in technical triplicates.
Data analysis was performed with GraphPad Prism (GraphPad Software, San Diego). The potency (EC50) and maximum efficacy (Emax) values of peptide ligands were derived from functional data fitted to three- or four-parameter nonlinear regression curves constrained to a bottom of zero.

[2] = biological target: mouse melanocortin 4 receptor fused to EGFP (mouse) (UniProt P56450)
mouse melanocortin 4 receptor fused to EGFP (mouse), sequence (P56450 whole entry, the tested form may be a part): as the sequence (P56450 whole entry) above

Molecule | cAMP accumulation (Cisbio HTRF) in HEK293 cells transiently expressing mouse MC4R-EGFP: EC50 [2] | cAMP accumulation (Cisbio HTRF) in HEK293 cells transiently expressing mouse MC4R-EGFP: Emax (normalised to NDP-α-MSH) [2] | EC50 [1] | Emax [1]
CC(C)[C@@H]1NC(=O)[C@H](CCCNC(=N)N)NC(=O)[C@H](Cc2ccccc2)NC(=O)[C@@H](NC(=O)[C@H](Cc2c[nH]c3ccccc23)NC(=O)[C@@H](N)CCCCN)CSSC[C@@H](C(=O)N[C@@H](CCCNC(=N)N)C(N)=O)NC(=O)[C@H](CCCNC(=N)N)NC(=O)[C@H](CCCNC(=N)N)NC(=O)[C@H](Cc2ccc(O)cc2)NC(=O)[C@@H]2CSSC[C@H](NC1=O)C(=O)N[C@@H](Cc1c[nH]cn1)C(=O)N[C@H](Cc1ccccc1)C(=O)N[C@@H](Cc1c[nH]cn1)C(=O)N[C@@H](Cc1c[nH]c3ccccc13)C(=O)N2 [Ta1LP2] (H-KWCFRVCH[dF]HWCYRRCR-NH2; disulfide 3-16, 7-12) |  |  | 50.1 nM | 97 ± 6%
CC(C)[C@@H]1NC(=O)[C@H](CCCNC(=N)N)NC(=O)[C@H](Cc2ccccc2)NC(=O)[C@@H](NC(=O)[C@H](Cc2c[nH]c3ccccc23)NC(=O)[C@@H](N)CCCCN)CSSC[C@@H](C(=O)N[C@@H](CCCNC(=N)N)C(N)=O)NC(=O)[C@H](CCCNC(=N)N)NC(=O)[C@H](CCCNC(=N)N)NC(=O)[C@H](Cc2ccc(O)cc2)NC(=O)[C@@H]2CSSC[C@H](NC1=O)C(=O)N[C@@H](Cc1c[nH]cn1)C(=O)N[C@H](Cc1ccccc1)C(=O)N[C@@H](CCCNC(=N)N)C(=O)N[C@@H](Cc1c[nH]c3ccccc13)C(=O)N2 [Ta1LP3] (H-KWCFRVCH[dF]RWCYRRCR-NH2; disulfide 3-16, 7-12) |  |  | 16.7 nM | 98 ± 4%
NDP-α-MSH (peptide) | 0.04 nM | 100% |  | 
RGGRLCYCH[dF]HWCFCVGR-NH2 (disulfide 8-13, 6-15; N-terminus assumed; SMILES CC(C)C[C@H](NC(=O)[C@H](CCCNC(=N)N)NC(=O)CNC(=O)CNC(=O)[C@@H](N)CCCNC(=N)N)C(=O)N[C@H]1CSSC[C@@H](C(=O)N[C@H](C(=O)NCC(=O)N[C@@H](CCCNC(=N)N)C(N)=O)C(C)C)NC(=O)[C@H](Cc2ccccc2)NC(=O)[C@@H]2CSSC[C@H](NC(=O)[C@H](Cc3ccc(O)cc3)NC1=O)C(=O)N[C@@H](Cc1c[nH]cn1)C(=O)N[C@H](Cc1ccccc1)C(=O)N[C@@H](Cc1c[nH]cn1)C(=O)N[C@@H](Cc1c[nH]c3ccccc13)C(=O)N2) [protegrin-4-like peptide 2] | 150 nM | 97% |  | 
GFCWYVCVPH[dF]HWRVCYRRCN-NH2 (disulfide 7-16, 3-20; N-terminus assumed; SMILES CC(C)[C@@H]1NC(=O)[C@H](CCCNC(=N)N)NC(=O)[C@H](Cc2c[nH]c3ccccc23)NC(=O)[C@H](Cc2c[nH]cn2)NC(=O)[C@@H](Cc2ccccc2)NC(=O)[C@H](Cc2c[nH]cn2)NC(=O)[C@@H]2CCCN2C(=O)[C@H](C(C)C)NC(=O)[C@@H]2CSSC[C@H](NC1=O)C(=O)N[C@@H](Cc1ccc(O)cc1)C(=O)N[C@@H](CCCNC(=N)N)C(=O)N[C@@H](CCCNC(=N)N)C(=O)N[C@H](C(=O)N[C@@H](CC(N)=O)C(N)=O)CSSC[C@H](NC(=O)[C@H](Cc1ccccc1)NC(=O)CN)C(=O)N[C@@H](Cc1c[nH]c3ccccc13)C(=O)N[C@@H](Cc1ccc(O)cc1)C(=O)N[C@@H](C(C)C)C(=O)N2) [arenicin-3-like peptide 3] | 1000 nM | 117% |  | 

The next lines start with results.

cAMP accumulation (Cisbio HTRF) in HEK293 cells transiently expressing mouse MC4R-EGFP: EC50 [2] | cAMP accumulation (Cisbio HTRF) in HEK293 cells transiently expressing mouse MC4R-EGFP: Emax (normalised to NDP-α-MSH) [2] | Molecule | EC50 [1] | Emax [1]
48 nM | 97% | KWCFRVCH[dF]HWCYRRCR-NH2 (disulfide 7-12, 3-16; N-terminus assumed; SMILES CC(C)[C@@H]1NC(=O)[C@H](CCCNC(=N)N)NC(=O)[C@H](Cc2ccccc2)NC(=O)[C@@H](NC(=O)[C@H](Cc2c[nH]c3ccccc23)NC(=O)[C@@H](N)CCCCN)CSSC[C@@H](C(=O)N[C@@H](CCCNC(=N)N)C(N)=O)NC(=O)[C@H](CCCNC(=N)N)NC(=O)[C@H](CCCNC(=N)N)NC(=O)[C@H](Cc2ccc(O)cc2)NC(=O)[C@@H]2CSSC[C@H](NC1=O)C(=O)N[C@@H](Cc1c[nH]cn1)C(=O)N[C@H](Cc1ccccc1)C(=O)N[C@@H](Cc1c[nH]cn1)C(=O)N[C@@H](Cc1c[nH]c3ccccc13)C(=O)N2) [tachyplesin-1-like peptide 2] |  | 
17 nM | 98% | KWCFRVCH[dF]RWCYRRCR-NH2 (disulfide 7-12, 3-16; N-terminus assumed; SMILES CC(C)[C@@H]1NC(=O)[C@H](CCCNC(=N)N)NC(=O)[C@H](Cc2ccccc2)NC(=O)[C@@H](NC(=O)[C@H](Cc2c[nH]c3ccccc23)NC(=O)[C@@H](N)CCCCN)CSSC[C@@H](C(=O)N[C@@H](CCCNC(=N)N)C(N)=O)NC(=O)[C@H](CCCNC(=N)N)NC(=O)[C@H](CCCNC(=N)N)NC(=O)[C@H](Cc2ccc(O)cc2)NC(=O)[C@@H]2CSSC[C@H](NC1=O)C(=O)N[C@@H](Cc1c[nH]cn1)C(=O)N[C@H](Cc1ccccc1)C(=O)N[C@@H](CCCNC(=N)N)C(=O)N[C@@H](Cc1c[nH]c3ccccc13)C(=O)N2) [tachyplesin-1-like peptide 3] |  | 
20 nM | 97% | KWCFRVCPH[dF]HWCYRRCR-NH2 (disulfide 7-13, 3-17; N-terminus assumed; SMILES CC(C)[C@@H]1NC(=O)[C@H](CCCNC(=N)N)NC(=O)[C@H](Cc2ccccc2)NC(=O)[C@@H](NC(=O)[C@H](Cc2c[nH]c3ccccc23)NC(=O)[C@@H](N)CCCCN)CSSC[C@@H](C(=O)N[C@@H](CCCNC(=N)N)C(N)=O)NC(=O)[C@H](CCCNC(=N)N)NC(=O)[C@H](CCCNC(=N)N)NC(=O)[C@H](Cc2ccc(O)cc2)NC(=O)[C@@H]2CSSC[C@H](NC1=O)C(=O)N1CCC[C@H]1C(=O)N[C@@H](Cc1c[nH]cn1)C(=O)N[C@H](Cc1ccccc1)C(=O)N[C@@H](Cc1c[nH]cn1)C(=O)N[C@@H](Cc1c[nH]c3ccccc13)C(=O)N2) [tachyplesin-1-like peptide 1] |  | 
210 nM | 99% | RGGRLCYCH[dF]RWCFCVGR-NH2 (disulfide 8-13, 6-15; N-terminus assumed; SMILES CC(C)C[C@H](NC(=O)[C@H](CCCNC(=N)N)NC(=O)CNC(=O)CNC(=O)[C@@H](N)CCCNC(=N)N)C(=O)N[C@H]1CSSC[C@@H](C(=O)N[C@H](C(=O)NCC(=O)N[C@@H](CCCNC(=N)N)C(N)=O)C(C)C)NC(=O)[C@H](Cc2ccccc2)NC(=O)[C@@H]2CSSC[C@H](NC(=O)[C@H](Cc3ccc(O)cc3)NC1=O)C(=O)N[C@@H](Cc1c[nH]cn1)C(=O)N[C@H](Cc1ccccc1)C(=O)N[C@@H](CCCNC(=N)N)C(=O)N[C@@H](Cc1c[nH]c3ccccc13)C(=O)N2) [protegrin-4-like peptide 3] |  | 
